{
  "source": "patent US20190262327A1",
  "about": "“COMBINATION OF A BACE INHIBITOR AND AN ANTIBODY OR ANTIGEN-BINDING FRAGMENT FOR THE TREATMENT OF A DISORDER ASSOCIATED WITH THE ACCUMULATION OF AMYLOID BETA” (ASTRAZENECA AB, priority 2016, published 2019)",
  "molecules": {"B1": {"name": "Abet0380-GL IgG1-TM: germlined Abet0380; VH SEQ ID NO: 524, VL SEQ ID NO: 533; human IgG1 triple mutant format (antibody, listed as Homo sapiens, V domains shown)", "VH": "EVQLLESGGGLVQPGGSLRLSCAASMGNFNYQTMWWVRQAPGKGLEWVSVIGKTNENIAYADSVKGRFTISRDNSKNTLYLQMNSLRAEDTAVYYCAREWMDHSRPYYYYGMDVWGQGTLVTVSS", "VL": "SYELTQPPSVSVSPGQTASITCSGHNLEDKFASWYQQKPGQSPVLVIYRDDKRPSGIPERFSASNSGHTATLTISGTQAMDEADYYCSSQDTVTRVFGGGTKLTVL", "modifications": "human IgG1 triple mutant constant region; /note=“Abet0380-GL”", "notes": "germlined Abet0380; human IgG1 triple mutant format"}},
  "key": {"[1]": {"target": "T1, Amyloid beta 1-42 peptide (Rattus norvegicus, UniProt P08592)", "T1 construct": "Measurement of free Amyloid beta 1-42 peptide in rat CSF; from tissue; host or cells: CSF and brain homogenate of Sprague-Dawley rats", "T1 sequence (P08592 672-713 limits assumed)": "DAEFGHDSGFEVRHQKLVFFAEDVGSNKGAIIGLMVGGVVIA", "assay": "Free Amyloid beta 1-42 peptide in rat CSF (immunoprecipitation + ELISA)", "type": "in vivo", "settings": "for reduction of free Amyloid beta 1-42 peptide in CSF vs vehicle control: rats, 168 h after second dose", "description": "Eight-week old male albino Harlan Sprague-Dawley rats (n=8-12) received a single dose of Abet0380-GL IgG1-TM antibody by intravenous injection with a dosing vehicle of 25 mM Histidine, 7% Sucrose, 0.02% p80 surfactant, pH 6.0 at 5 ml/kg. Dosing solutions were made just before dosing. Animals were anaesthetized at the time indicated and cerebrospinal fluid (CSF) was aspirated from the cistema magna. CSF samples were centrifuged for 10 minutes at approximately 3000× g at 4° C. within 20 minutes of sampling to remove cells or debris. Samples were then frozen on dry ice and stored at −70° C. for subsequent analysis.\nMeasurement of free Amyloid beta 1-42 peptide in rat CSF was conducted using immunoprecipitation to remove Abet0380-GL bound Amyloid beta 1-42 peptide, followed by analysis by a commercial ELISA kit obtained from Invitrogen. Briefly, a solution of protein A beads (Dynabeads® Protein A; Invitrogen, UK; cat: 100-02D) was added to a 96 well non-skirted plate (polypropylene 0.2 ml; VWR International, UK; cat: 10732-4828) and washed twice with TBST (50 mM TBS; Sigma, UK; cat: T6664 plus 0.1% Tween20) using a magnet (DynaMag™ 96 side; Invitrogen, UK; cat: 123.31 D) to separate the beads from the solution. Thawed rat CSF samples (40 μl) were added to each well and incubated at […] with tilt rotation for 1 hour. The beads were then pelleted using the magnet and 30 μl of immunoprecipitated CSF samples were transferred to a 96 well plate from the ELISA kit (mouse Amyloid beta (1-42) colorimetric ELISA kit; Invitrogen, UK; cat: KMB3441) with 70 μl of the Standard Diluent Buffer already added (supplemented with protease inhibitor; Roche, UK; cat: 11836153001). Calibration standard samples were added to the plate in duplicate and the plate was incubated for 2 hours at room temperature with shaking. The plate was washed 4 times with 400 µl of wash buffer, 100 μl of the detection antibody solution was added to each well and the plate was incubated for 1 hour at room temperature with shaking. Again, the plate was washed 4 times with 400 μl of wash buffer, 100 μl of the secondary antibody working solution was added to each well and the plate was incubated for 30 minutes at room temperature with shaking. Finally, the plate was washed 4 times with 400 μl of wash buffer, 100 μl of stabilized Chromogen was added to each well and the plate was incubated for 30 minutes at room temperature in the dark. To stop the reaction, 100 μl of Stop Solution was added to each well and the plate was read within 2 hours at an absorbance of 450 nm. Single CSF samples were analyzed and data analysis was performed using Prism 4 (GraphPad, USA) with one-way ANOVA on log transformed data without adjustment for multiple comparisons.\nTo further investigate the effect of the Abet0380-GL IgG1-TM antibody in vivo, rats were administered weekly doses of 0.25, 0.5, 1, 5 or 10 mg/kg over 14 days. Animals were euthanized 168 hours after the second dose to measure levels of free Amyloid beta 1-42 peptide in CSF as well as total Amyloid beta 1-42 or 1-40 peptides in brain tissue.\nThe ability of antibody Abet0144-GL to sequester amyloid beta 1-42 was investigated in a PK-PD study in normal rats. Rats were intravenously administered Abet0144-GL (10 or 40 mg/kg) or vehicle weekly for 2 weeks (on days 0 and 7), and sacrificed a week after the 2nd dose. […] Free and total amyloid beta 1-42 levels were measured using assays described above."}, "[2]": {"target": "T2, unlabelled murine Amyloid beta 1-42 (Mus musculus, UniProt P12023)", "T2 construct": "unlabelled murine Amyloid beta 1-42 (rPeptide, USA; cat: A1008); purchased rPeptide, USA A1008; host or cells: synthetic peptide", "T2 sequence (P12023 672-713)": "as the sequence (P08592 672-713 limits assumed) above", "assay": "Surface Plasmon Resonance specificity profiling of IgGs (BIAcore2000)", "type": "binding", "settings": "peptide 64-1024 nM", "description": "(§1) Surface Plasmon Resonance was used to verify the specificity of the affinity-optimized IgGs for the human Amyloid beta 1-42 peptide. Briefly, the BIAcore2000 (GE Healthcare, UK) biosensor instrument was used to assess the kinetic parameters of the interaction between each test IgG and a range of small peptides including synthetically-produced human Amyloid beta 1-42 and human Amyloid beta 1-40. These experiments were performed essentially as described by Karlsson et al. (Karlsson et al., 1991).\n(§2) The interaction between each test IgG and each peptide was estimated using assays in which the antibody was non-covalently captured by a protein G surface that was itself amine linked to a proprietary CM5 chip. The interaction between antibody and peptide was observed using a 5 application single cycle approach. The chip surface was regenerated between cycles by paired 40 second injections of 10 mM Glycine pH 2.0 to remove ligand and bound antibody. The test antibody was then reapplied for each peptide injection cycle.\n(§3) Blank reference flow-cell data were subtracted from each IgG dataset and a zero-concentration antibody-only buffer blank was double-reference subtracted from the main dataset."}, "[3]": {"target": "T3, unlabelled murine Amyloid beta 1-40 (Mus musculus, UniProt P12023)", "T3 construct": "unlabelled murine Amyloid beta 1-40 (rPeptide, USA; cat: A1007); purchased rPeptide, USA A1007; host or cells: synthetic peptide", "T3 sequence (P12023 672-711)": "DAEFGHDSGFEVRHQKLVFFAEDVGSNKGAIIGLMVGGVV", "assay": "Surface Plasmon Resonance specificity profiling of IgGs (BIAcore2000)", "type": "binding", "settings": "peptide 64-1024 nM", "description": "as §1, §2, §3"}, "[4]": {"target": "T4, biotinylated human Amyloid beta 1-42 (Homo sapiens, UniProt P05067)", "T4 construct": "biotinylated human Amyloid beta 1-42 peptide (rpeptide, USA; cat: A1117); purchased rPeptide, USA A1117; host or cells: synthetic peptide", "T4 sequence (P05067 672-713)": "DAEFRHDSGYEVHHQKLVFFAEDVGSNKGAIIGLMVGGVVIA", "assay": "Surface Plasmon Resonance specificity profiling of IgGs (BIAcore2000)", "type": "binding", "settings": "peptide 64-1024 nM", "description": "as §1, §2, §3"}, "[5]": {"target": "T5, biotinylated human Amyloid beta 1-40 (Homo sapiens, UniProt P05067)", "T5 construct": "biotinylated human Amyloid beta 1-40 (rPeptide, USA; cat: A1111); purchased rPeptide, USA A1111; host or cells: synthetic peptide", "T5 sequence (P05067 672-711)": "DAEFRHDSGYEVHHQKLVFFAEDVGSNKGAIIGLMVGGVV", "assay": "Surface Plasmon Resonance specificity profiling of IgGs (BIAcore2000)", "type": "binding", "settings": "peptide 64-1024 nM", "description": "as §1, §2, §3"}, "[6]": {"settings": "listed as Abet0380-GL (germlined) IgG1-TM"}},
  "note": "Entries after “also recorded” stand apart in the source; their conditions may differ.",
  "data": [
    {"molecule": "B1", "values": [
      {"measurement": "effect on free Amyloid beta 1-42 in CSF", "setting": "[1]; Sprague-Dawley rats, 0.25-10 mg/kg weekly over 14 days", "result": "dose-dependent decrease; also recorded: dose-dependent reduction"},
      {"measurement": "reduction of free Amyloid beta 1-42 peptide in CSF vs vehicle control", "setting": "[1]; 0.25 mg/kg weekly over 14 days, not statistically significant", "result": 14, "unit": "%"},
      {"measurement": "reduction of free Amyloid beta 1-42 peptide in CSF vs vehicle control", "setting": "[1]; 0.5 mg/kg weekly over 14 days", "result": 47, "unit": "%"},
      {"measurement": "reduction of free Amyloid beta 1-42 peptide in CSF vs vehicle control", "setting": "[1]; 1 mg/kg weekly over 14 days", "result": 61, "unit": "%"},
      {"measurement": "binding of unlabelled murine Amyloid beta 1-42 peptide to immobilized antibody", "setting": "[2]", "result": "clear binding"},
      {"measurement": "binding of unlabelled murine Amyloid beta 1-42 peptide to immobilized antibody", "setting": "[2]; [6]", "result": "strong binding"},
      {"measurement": "binding of unlabelled murine Amyloid beta 1-40 peptide to immobilized antibody", "setting": "[3]", "result": "no discernable binding"},
      {"measurement": "binding of unlabelled murine Amyloid beta 1-40 peptide to immobilized antibody", "setting": "[3]; [6]", "result": "no binding"},
      {"measurement": "binding of biotinylated human Amyloid beta 1-42 peptide to immobilized antibody", "setting": "[4]", "result": "clear binding"},
      {"measurement": "binding of biotinylated human Amyloid beta 1-42 peptide to immobilized antibody", "setting": "[4]; [6]", "result": "strong binding"},
      {"measurement": "binding of biotinylated human Amyloid beta 1-40 peptide to immobilized antibody", "setting": "[5]", "result": "no discernable binding"},
      {"measurement": "binding of biotinylated human Amyloid beta 1-40 peptide to immobilized antibody", "setting": "[5]; [6]", "result": "no binding"}
    ]}
  ]
}
